Experimental data reported in PMC7683346.

Target: FFAR4-NanoLuc (UniProt Q5NUL3)
Assay: FRET or BRET

UniProt Q5NUL3, sequence (Q5NUL3 whole entry): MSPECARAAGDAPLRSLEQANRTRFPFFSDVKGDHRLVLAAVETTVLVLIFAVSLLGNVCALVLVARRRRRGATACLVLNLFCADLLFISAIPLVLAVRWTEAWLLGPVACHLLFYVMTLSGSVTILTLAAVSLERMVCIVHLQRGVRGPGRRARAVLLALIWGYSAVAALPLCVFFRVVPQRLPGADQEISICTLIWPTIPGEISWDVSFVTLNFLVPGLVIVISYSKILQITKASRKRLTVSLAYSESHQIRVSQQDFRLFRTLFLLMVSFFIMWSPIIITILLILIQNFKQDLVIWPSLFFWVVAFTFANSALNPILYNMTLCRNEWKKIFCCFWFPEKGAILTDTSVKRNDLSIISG

## Venus-tagged mini-Gαi
  fold BRET signal against mini-Gαq: 3 fold

## Venus-tagged mini-Gαo
  fold BRET signal against mini-Gαq: 3 fold
